Test results as given in US9573987B2 (priority 2011, dated 2017).
“And” between values parts separate entries of the source, which are not always exact repeats. Equal values may be shown once. Read-outs that look alike come from different tables or passages of the source. Blank lines part the entries; values can stand above or below the molecule they belong to. Bridges are numbered along the chain shown (N, C = ends). Where no end group is shown, it is not given here.

How the values were obtained:
IR-A = IR-A (Homo sapiens, UniProt P06213); assay: In vitro activity of pegylated analogs relative to native insulin at IR-A
IR-B = IR-B (Homo sapiens, UniProt P06213); assay: In vitro activity of pegylated analogs relative to native insulin at IR-B
insulin receptor [1] = biological target: T1, insulin receptor (Homo sapiens, UniProt P06213); assay: Insulin receptor phosphorylation assay, receptor transfected HEK293 cells; assay type: cell-based; parameters: expressed in transfected cells; host or cells: HEK293; conditions: Table 10
Protocol: (§1) Color development was stopped 5 min later by adding 0.05 ml 1 N HCl. Absorbance at 450 nm was measured on Titertek Multiscan MCC340 (ThermoFisher, Pittsburgh, Pa.).

IGF-1 receptor [2] = biological target: T2, IGF-1 receptor (Homo sapiens, UniProt P08069); assay: IGF-1 receptor phosphorylation assay, receptor transfected HEK293 cells; assay type: cell-based; parameters: expressed in transfected cells; host or cells: HEK293
Protocol: as §1

insulin receptor [3] = biological target: T1, insulin receptor; assay: Insulin receptor binding assay (competition, scintillation proximity); parameters: expressed in transfected cells; plasma membrane fragments; conditions: for Ratio: IGF-1 receptor IC50 over insulin receptor IC50
IGF-1 receptor [4] = biological target: T2, IGF-1 receptor; assay: IGF-1 receptor binding assay (competition, scintillation proximity); parameters: expressed in transfected cells; plasma membrane fragments; conditions: for IGF-1 Receptor % IGF-1 (in test): Table 9; for EC50: Table 15, read-out: Receptor Binding IGR-1R EC50
[5] = test system: human mammary epithelial cells (HMEC); assay: Human mammary epithelial cells proliferation ([14C]-thymidine); assay type: cell-based
Protocol: The plate was incubated 4 h at 37° C., 5% CO2 and 90% humidity.

blood glucose = assay: Comparative insulin tolerance test / insulin dose titration in mice
[6] = biological target: T3, insulin subtype A receptor (IR-A) (Homo sapiens, UniProt P06213); assay: Insulin subtype A receptor phosphorylation, receptor transfected HEK293 cells; assay type: cell-based
T3 construct: expressed in transfected cells; host or cells: HEK293
Protocol: (§2) Color development was stopped 5 min later by adding 0.05 ml 1 N HCl. Absorbance at 450 nm was measured on Titertek Multiscan MCC340 (ThermoFisher, Pittsburgh, Pa.). […]

[7] = biological target: insulin subtype B receptor (IR-B) (Homo sapiens, UniProt P06213); assay: Insulin subtype B receptor phosphorylation, receptor transfected HEK293 cells; assay type: cell-based; parameters: expressed in transfected cells; host or cells: HEK293
Protocol: as §2

[8] = total phosphorylation, Table 10
[9] = Table 15, read-out: Proliferation HMEC EC50
[10] = Table 15, read-out: Receptor Phosphorylation IGF-IR EC50
[11] = Table 15, read-out: Receptor Phosphorylation IR-B EC50

% Insulin Activity IR-A (IR-A): 0.2%
Molecule: B^1(H5,Y16,L17)25-C^1(K8)-A^1(N18,21) (GPEHLCGAELVDALYLVCGDRGFYGYGSSSRKAPQTGIVDECCFRSCDLRRLENYCN) [MIU-67, two 10K PEG chains, at the N-terminus and at position C8 of the linking moiety]

% Insulin Activity IR-B (IR-B): 1.1%
% Insulin Activity IR-A (IR-A): 3.1%
Molecule: B^1(H5,Y16,L17)25-C^1-A^1(N18,21) (GPEHLCGAELVDALYLVCGDRGFYGYGSSSRRAPQTGIVDECCFRSCDLRRLENYCN) [MIU-57, single chain analog with 20 kDa PEG linked to the N-terminus of the B chain]

EC50 (insulin receptor [1]; Insulin Receptor EC50:, total phosphorylation): 0.15 nM and 0.25 nM
Insulin Receptor % Insulin (insulin receptor [1]; listed as IGF-1 A (H8 A9 N21) B(H5D10Y16L17) DPI A-COOH): 840% and 1080%
IGF-1 Receptor % IGF (IGF-1 receptor [2]; Table 10): 181.395%
EC50 (IGF-1 receptor [2]; [8]): 0.43 nM
Ratio (insulin receptor [3]): 80.6
Insulin Receptor % insulin (in test) (insulin receptor [3]; Table 9): 1576.7% and 1667.0%
IGF-1 Receptor % IGF-1 (in test) (IGF-1 receptor [4]): 12.9%
Molecule: CC[C@H](C)[C@H](NC(=O)CN)C(=O)N[C@H](C(=O)N[C@@H](CC(=O)O)C(=O)N[C@@H](CCC(=O)O)C(=O)N[C@H]1CSSC[C@@H]2NC(=O)[C@H](CO)NC(=O)[C@H](C)NC(=O)[C@H](Cc3c[nH]cn3)NC(=O)[C@H](CSSC[C@H](NC(=O)[C@H](CC(C)C)NC(=O)[C@H](Cc3c[nH]cn3)NC(=O)[C@H](CCC(=O)O)NC(=O)[C@@H]3CCCN3C(=O)CN)C(=O)NCC(=O)N[C@@H](C)C(=O)N[C@@H](CC(=O)O)C(=O)N[C@@H](CC(C)C)C(=O)N[C@@H](C(C)C)C(=O)N[C@@H](CC(=O)O)C(=O)N[C@@H](C)C(=O)N[C@@H](CC(C)C)C(=O)N[C@@H](Cc3ccc(O)cc3)C(=O)N[C@@H](CC(C)C)C(=O)N[C@@H](C(C)C)C(=O)N[C@H](C(=O)NCC(=O)N[C@@H](CC(=O)O)C(=O)N[C@@H](CCCNC(=N)N)C(=O)NCC(=O)N[C@@H](Cc3ccccc3)C(=O)N[C@@H](Cc3ccc(O)cc3)C(N)=O)CSSC[C@@H](C(=O)N[C@@H](CC(N)=O)C(=O)O)NC(=O)[C@H](Cc3ccc(O)cc3)NC(=O)[C@H](CCSC)NC(=O)[C@H](CCC(=O)O)NC(=O)[C@H](CC(C)C)NC(=O)[C@H](CCCNC(=N)N)NC(=O)[C@H](CCCNC(=N)N)NC(=O)[C@H](CC(C)C)NC(=O)[C@H](CC(=O)O)NC2=O)NC1=O)C(C)C

% Insulin Activity IR-B (IR-B): 17.4%
% Insulin Activity IR-A (IR-A): 61.4%
Molecule: B^1(H5, H10, Y16, L17)25-C^1-A^1 (H8, N18, N21) (GPEHLCGAHLVDALYLVCGDRGFYGYGSSSRRAPQTGIVDECCHRSCDLRRLENYCN) [MIU-35]

Molecule: Insulin: native human insulin, 51 amino acid heteroduplex of A chain SEQ ID NO: 1 and B chain SEQ ID NO: 2 [reference compound]
EC50 [5, 9]: 23.4 nM
EC50 ([5]; average measured potency at 24, 48, 72 and 96 hours, read-out: EC50): 6.16 nM

% Insulin Activity IR-A (IR-A): 0.4%
Molecule: B^1(H5,Y16,L17, K22)25-C^1(K8)-A^1(N18,21) (GPEHLCGAELVDALYLVCGDKGFYGYGSSSRKAPQTGIVDECCFRSCDLRRLENYCN) [MIU-68, two 10K PEG chains, at the N-terminus and at amino acid B22]

Insulin Receptor % Insulin (insulin receptor [1]): 49.2%
IGF-1 Receptor % IGF (IGF-1 receptor [2]; Table 10): 13%
Ratio (insulin receptor [3]): 11.9
Insulin Receptor % insulin (in test) (insulin receptor [3]; Table 9): 58.7% and 98.8%
Insulin Receptor % native insulin activity (0.6 nM) (insulin receptor [3]; Table 9): 90.9% and 117.6%
IGF-1 Receptor % IGF-1 (in test) (IGF-1 receptor [4]): 6.8% and 5.0%
Molecule: CC[C@H](C)[C@H](NC(=O)CN)C(=O)N[C@H](C(=O)N[C@@H](CC(=O)O)C(=O)N[C@@H](CCC(=O)O)C(=O)N[C@H]1CSSC[C@@H]2NC(=O)[C@H](CO)NC(=O)[C@H](CCCNC(=N)N)NC(=O)[C@H](Cc3ccccc3)NC(=O)[C@H](CSSC[C@H](NC(=O)[C@H](CC(C)C)NC(=O)[C@@H](NC(=O)[C@H](CCC(=O)O)NC(=O)[C@@H]3CCCN3C(=O)CN)[C@@H](C)O)C(=O)NCC(=O)N[C@@H](C)C(=O)N[C@@H](CCC(=O)O)C(=O)N[C@@H](CC(C)C)C(=O)N[C@@H](C(C)C)C(=O)N[C@@H](CC(=O)O)C(=O)N[C@@H](C)C(=O)N[C@@H](CC(C)C)C(=O)N[C@@H](Cc3ccc(O)cc3)C(=O)N[C@@H](CC(C)C)C(=O)N[C@@H](C(C)C)C(=O)N[C@H](C(=O)NCC(=O)N[C@@H](CC(=O)O)C(=O)N[C@@H](CCCNC(=N)N)C(=O)NCC(=O)N[C@@H](Cc3ccccc3)C(=O)N[C@@H](Cc3ccc(O)cc3)C(=O)N[C@@H](Cc3ccccc3)C(=O)N[C@@H](CC(N)=O)C(=O)N[C@@H](CCCCN)C(=O)N3CCC[C@H]3C(=O)N[C@H](C(N)=O)[C@@H](C)O)CSSC[C@@H](C(=O)N[C@@H](C)C(N)=O)NC(=O)[C@H](Cc3ccc(O)cc3)NC(=O)[C@H](CCSC)NC(=O)[C@H](CCC(=O)O)NC(=O)[C@H](CC(C)C)NC(=O)[C@H](CCCNC(=N)N)NC(=O)[C@H](CCCNC(=N)N)NC(=O)[C@H](CC(C)C)NC(=O)[C@H](CC(=O)O)NC2=O)NC1=O)C(C)C [IGF-1 A:B(E10Y16L17)]

Molecule: MIU-58: dimer of two single chain analogs B1(H5,Y16,L17)25-C1-A1(N18,21) linked head to head via 20 kDa PEG (GPEHLCGAELVDALYLVCGDRGFYGYGSSSRRAPQTGIVDECCFRSCDLRRLENYCN; disulfide 18-56, 42-47, 6-43; also: dimer of two chains joined head to head (B1 N-termini) via 20 kDa PEG)
% Insulin Activity IR-B (IR-B): 5.8%
% Insulin Activity IR-A (IR-A): 19.7%
blood glucose lowering in insulin tolerance test (result in words) (blood glucose): less potent than the parent compound, but is still active

% Insulin Activity IR-B (IR-B): 0.5%
% Insulin Activity IR-A (IR-A): 1.0%
Molecule: B^1(H5,Y16,L17)25-C^1(K8)-A^1(K14, N18,21) (GPEHLCGAELVDALYLVCGDRGFYGYGSSSRKAPQTGIVDECCFRSCDLKRLENYCN) [MIU-69, two 10K PEG chains, at the N-terminus and at amino acid A14]

Insulin Receptor % Insulin (insulin receptor [1]): 1575%
IGF-1 Receptor % IGF (IGF-1 receptor [2]; Table 10): 111.538%
EC50 (IGF-1 receptor [2]; [8]): 0.78 nM
IGF-1 Receptor % IGF-1 (in test) (IGF-1 receptor [4]): 7.7%
Molecule: CC[C@H](C)[C@H](NC(=O)CN)C(=O)N[C@H](C(=O)N[C@@H](CC(=O)O)C(=O)N[C@@H](CCC(=O)O)C(=O)N[C@H]1CSSC[C@@H]2NC(=O)[C@H](CO)NC(=O)[C@H](CCCNC(=N)N)NC(=O)[C@H](Cc3ccccc3)NC(=O)[C@H](CSSC[C@H](NC(=O)[C@H](CC(C)C)NC(=O)[C@@H](NC(=O)[C@H](CCC(=O)O)NC(=O)[C@@H]3CCCN3C(=O)CN)[C@@H](C)O)C(=O)NCC(=O)N[C@@H](C)C(=O)N[C@@H](CC(=O)O)C(=O)N[C@@H](CC(C)C)C(=O)N[C@@H](C(C)C)C(=O)N[C@@H](CC(=O)O)C(=O)N[C@@H](C)C(=O)N[C@@H](CC(C)C)C(=O)N[C@@H](Cc3ccc(O)cc3)C(=O)N[C@@H](CC(C)C)C(=O)N[C@@H](C(C)C)C(=O)N[C@H](C(=O)NCC(=O)N[C@@H](CC(=O)O)C(=O)N[C@@H](CCCNC(=N)N)C(=O)NCC(=O)N[C@@H](Cc3ccccc3)C(=O)N[C@@H](Cc3ccc(O)cc3)C(N)=O)CSSC[C@@H](C(=O)N[C@@H](C)C(=O)O)NC(=O)[C@H](Cc3ccc(O)cc3)NC(=O)[C@H](CCSC)NC(=O)[C@H](CCC(=O)O)NC(=O)[C@H](CC(C)C)NC(=O)[C@H](CCCNC(=N)N)NC(=O)[C@H](CCCNC(=N)N)NC(=O)[C@H](CC(C)C)NC(=O)[C@H](CC(=O)O)NC2=O)NC1=O)C(C)C [IGF-1 A:B(D10Y16L17) DPI A-COOH]

EC50 ([6]; Table 15, read-out: Receptor Phosphorylation IR-A- EC50): 0.985 nM
EC50 (IGF-1 receptor [2]; [10]): 26.7 nM
EC50 [7, 11]: 4.34 nM
EC50 (IGF-1 receptor [4]): 216 nM
B1: … AHLVDALYLVCGDRGFYGYGSSSRRAPQTGIVDECCHRSCDLRRLENYCN (protein, listed as Homo sapiens)
chain: MGSSSSKAPPPSLPSPSRLPGPSDTPILPQEEEEEKGPEHLCGAHLVDALYLVCGDRGFYGYGSSSRRAPQTGIVDECCHRSCDLRRLENYCN
blood glucose lowering in insulin tolerance test (result in words) (blood glucose): potent insulin receptor agonists

in vitro phosphorylation activity at the insulin subtype A receptor (result in words) ([6]; FIGS. 21, 23): potency similar to native insulin
EC50 (IGF-1 receptor [2]; [10]): 13.3 nM
EC50 [7, 11]: 1.33 nM
EC50 ([7]; read-out: EC50 values (in nM), phosphorylation at the insulin subtype B receptor, experiment of FIG. 18B): 2.44 ± 1.3 nM
EC50 (IGF-1 receptor [4]): 50 nM
B2: DP20LysC: DP20 cleaved at the lysine of CTP to produce a two chain insulin (protein)
chain 1: GPEHLCGAHLVDALYLVCGDRGFYSSSSRAPPPSLPSPSRLPGPSDTPILPQK
chain 2: GIVDECCHRSCDLRRLENYCN
EC50 [5, 9]: 8.19 nM
